This is an account of results in publication PMC4300236.

In this assay the target is rabbit skeletal muscle type 1 ryanodine receptor (RyR1) (rabbit (Oryctolagus cuniculus)) (UniProt P11716). Description: cryo-EM structure.

rabbit skeletal muscle type 1 ryanodine receptor (RyR1), P11716 1-5037, sequence (P11716 whole entry): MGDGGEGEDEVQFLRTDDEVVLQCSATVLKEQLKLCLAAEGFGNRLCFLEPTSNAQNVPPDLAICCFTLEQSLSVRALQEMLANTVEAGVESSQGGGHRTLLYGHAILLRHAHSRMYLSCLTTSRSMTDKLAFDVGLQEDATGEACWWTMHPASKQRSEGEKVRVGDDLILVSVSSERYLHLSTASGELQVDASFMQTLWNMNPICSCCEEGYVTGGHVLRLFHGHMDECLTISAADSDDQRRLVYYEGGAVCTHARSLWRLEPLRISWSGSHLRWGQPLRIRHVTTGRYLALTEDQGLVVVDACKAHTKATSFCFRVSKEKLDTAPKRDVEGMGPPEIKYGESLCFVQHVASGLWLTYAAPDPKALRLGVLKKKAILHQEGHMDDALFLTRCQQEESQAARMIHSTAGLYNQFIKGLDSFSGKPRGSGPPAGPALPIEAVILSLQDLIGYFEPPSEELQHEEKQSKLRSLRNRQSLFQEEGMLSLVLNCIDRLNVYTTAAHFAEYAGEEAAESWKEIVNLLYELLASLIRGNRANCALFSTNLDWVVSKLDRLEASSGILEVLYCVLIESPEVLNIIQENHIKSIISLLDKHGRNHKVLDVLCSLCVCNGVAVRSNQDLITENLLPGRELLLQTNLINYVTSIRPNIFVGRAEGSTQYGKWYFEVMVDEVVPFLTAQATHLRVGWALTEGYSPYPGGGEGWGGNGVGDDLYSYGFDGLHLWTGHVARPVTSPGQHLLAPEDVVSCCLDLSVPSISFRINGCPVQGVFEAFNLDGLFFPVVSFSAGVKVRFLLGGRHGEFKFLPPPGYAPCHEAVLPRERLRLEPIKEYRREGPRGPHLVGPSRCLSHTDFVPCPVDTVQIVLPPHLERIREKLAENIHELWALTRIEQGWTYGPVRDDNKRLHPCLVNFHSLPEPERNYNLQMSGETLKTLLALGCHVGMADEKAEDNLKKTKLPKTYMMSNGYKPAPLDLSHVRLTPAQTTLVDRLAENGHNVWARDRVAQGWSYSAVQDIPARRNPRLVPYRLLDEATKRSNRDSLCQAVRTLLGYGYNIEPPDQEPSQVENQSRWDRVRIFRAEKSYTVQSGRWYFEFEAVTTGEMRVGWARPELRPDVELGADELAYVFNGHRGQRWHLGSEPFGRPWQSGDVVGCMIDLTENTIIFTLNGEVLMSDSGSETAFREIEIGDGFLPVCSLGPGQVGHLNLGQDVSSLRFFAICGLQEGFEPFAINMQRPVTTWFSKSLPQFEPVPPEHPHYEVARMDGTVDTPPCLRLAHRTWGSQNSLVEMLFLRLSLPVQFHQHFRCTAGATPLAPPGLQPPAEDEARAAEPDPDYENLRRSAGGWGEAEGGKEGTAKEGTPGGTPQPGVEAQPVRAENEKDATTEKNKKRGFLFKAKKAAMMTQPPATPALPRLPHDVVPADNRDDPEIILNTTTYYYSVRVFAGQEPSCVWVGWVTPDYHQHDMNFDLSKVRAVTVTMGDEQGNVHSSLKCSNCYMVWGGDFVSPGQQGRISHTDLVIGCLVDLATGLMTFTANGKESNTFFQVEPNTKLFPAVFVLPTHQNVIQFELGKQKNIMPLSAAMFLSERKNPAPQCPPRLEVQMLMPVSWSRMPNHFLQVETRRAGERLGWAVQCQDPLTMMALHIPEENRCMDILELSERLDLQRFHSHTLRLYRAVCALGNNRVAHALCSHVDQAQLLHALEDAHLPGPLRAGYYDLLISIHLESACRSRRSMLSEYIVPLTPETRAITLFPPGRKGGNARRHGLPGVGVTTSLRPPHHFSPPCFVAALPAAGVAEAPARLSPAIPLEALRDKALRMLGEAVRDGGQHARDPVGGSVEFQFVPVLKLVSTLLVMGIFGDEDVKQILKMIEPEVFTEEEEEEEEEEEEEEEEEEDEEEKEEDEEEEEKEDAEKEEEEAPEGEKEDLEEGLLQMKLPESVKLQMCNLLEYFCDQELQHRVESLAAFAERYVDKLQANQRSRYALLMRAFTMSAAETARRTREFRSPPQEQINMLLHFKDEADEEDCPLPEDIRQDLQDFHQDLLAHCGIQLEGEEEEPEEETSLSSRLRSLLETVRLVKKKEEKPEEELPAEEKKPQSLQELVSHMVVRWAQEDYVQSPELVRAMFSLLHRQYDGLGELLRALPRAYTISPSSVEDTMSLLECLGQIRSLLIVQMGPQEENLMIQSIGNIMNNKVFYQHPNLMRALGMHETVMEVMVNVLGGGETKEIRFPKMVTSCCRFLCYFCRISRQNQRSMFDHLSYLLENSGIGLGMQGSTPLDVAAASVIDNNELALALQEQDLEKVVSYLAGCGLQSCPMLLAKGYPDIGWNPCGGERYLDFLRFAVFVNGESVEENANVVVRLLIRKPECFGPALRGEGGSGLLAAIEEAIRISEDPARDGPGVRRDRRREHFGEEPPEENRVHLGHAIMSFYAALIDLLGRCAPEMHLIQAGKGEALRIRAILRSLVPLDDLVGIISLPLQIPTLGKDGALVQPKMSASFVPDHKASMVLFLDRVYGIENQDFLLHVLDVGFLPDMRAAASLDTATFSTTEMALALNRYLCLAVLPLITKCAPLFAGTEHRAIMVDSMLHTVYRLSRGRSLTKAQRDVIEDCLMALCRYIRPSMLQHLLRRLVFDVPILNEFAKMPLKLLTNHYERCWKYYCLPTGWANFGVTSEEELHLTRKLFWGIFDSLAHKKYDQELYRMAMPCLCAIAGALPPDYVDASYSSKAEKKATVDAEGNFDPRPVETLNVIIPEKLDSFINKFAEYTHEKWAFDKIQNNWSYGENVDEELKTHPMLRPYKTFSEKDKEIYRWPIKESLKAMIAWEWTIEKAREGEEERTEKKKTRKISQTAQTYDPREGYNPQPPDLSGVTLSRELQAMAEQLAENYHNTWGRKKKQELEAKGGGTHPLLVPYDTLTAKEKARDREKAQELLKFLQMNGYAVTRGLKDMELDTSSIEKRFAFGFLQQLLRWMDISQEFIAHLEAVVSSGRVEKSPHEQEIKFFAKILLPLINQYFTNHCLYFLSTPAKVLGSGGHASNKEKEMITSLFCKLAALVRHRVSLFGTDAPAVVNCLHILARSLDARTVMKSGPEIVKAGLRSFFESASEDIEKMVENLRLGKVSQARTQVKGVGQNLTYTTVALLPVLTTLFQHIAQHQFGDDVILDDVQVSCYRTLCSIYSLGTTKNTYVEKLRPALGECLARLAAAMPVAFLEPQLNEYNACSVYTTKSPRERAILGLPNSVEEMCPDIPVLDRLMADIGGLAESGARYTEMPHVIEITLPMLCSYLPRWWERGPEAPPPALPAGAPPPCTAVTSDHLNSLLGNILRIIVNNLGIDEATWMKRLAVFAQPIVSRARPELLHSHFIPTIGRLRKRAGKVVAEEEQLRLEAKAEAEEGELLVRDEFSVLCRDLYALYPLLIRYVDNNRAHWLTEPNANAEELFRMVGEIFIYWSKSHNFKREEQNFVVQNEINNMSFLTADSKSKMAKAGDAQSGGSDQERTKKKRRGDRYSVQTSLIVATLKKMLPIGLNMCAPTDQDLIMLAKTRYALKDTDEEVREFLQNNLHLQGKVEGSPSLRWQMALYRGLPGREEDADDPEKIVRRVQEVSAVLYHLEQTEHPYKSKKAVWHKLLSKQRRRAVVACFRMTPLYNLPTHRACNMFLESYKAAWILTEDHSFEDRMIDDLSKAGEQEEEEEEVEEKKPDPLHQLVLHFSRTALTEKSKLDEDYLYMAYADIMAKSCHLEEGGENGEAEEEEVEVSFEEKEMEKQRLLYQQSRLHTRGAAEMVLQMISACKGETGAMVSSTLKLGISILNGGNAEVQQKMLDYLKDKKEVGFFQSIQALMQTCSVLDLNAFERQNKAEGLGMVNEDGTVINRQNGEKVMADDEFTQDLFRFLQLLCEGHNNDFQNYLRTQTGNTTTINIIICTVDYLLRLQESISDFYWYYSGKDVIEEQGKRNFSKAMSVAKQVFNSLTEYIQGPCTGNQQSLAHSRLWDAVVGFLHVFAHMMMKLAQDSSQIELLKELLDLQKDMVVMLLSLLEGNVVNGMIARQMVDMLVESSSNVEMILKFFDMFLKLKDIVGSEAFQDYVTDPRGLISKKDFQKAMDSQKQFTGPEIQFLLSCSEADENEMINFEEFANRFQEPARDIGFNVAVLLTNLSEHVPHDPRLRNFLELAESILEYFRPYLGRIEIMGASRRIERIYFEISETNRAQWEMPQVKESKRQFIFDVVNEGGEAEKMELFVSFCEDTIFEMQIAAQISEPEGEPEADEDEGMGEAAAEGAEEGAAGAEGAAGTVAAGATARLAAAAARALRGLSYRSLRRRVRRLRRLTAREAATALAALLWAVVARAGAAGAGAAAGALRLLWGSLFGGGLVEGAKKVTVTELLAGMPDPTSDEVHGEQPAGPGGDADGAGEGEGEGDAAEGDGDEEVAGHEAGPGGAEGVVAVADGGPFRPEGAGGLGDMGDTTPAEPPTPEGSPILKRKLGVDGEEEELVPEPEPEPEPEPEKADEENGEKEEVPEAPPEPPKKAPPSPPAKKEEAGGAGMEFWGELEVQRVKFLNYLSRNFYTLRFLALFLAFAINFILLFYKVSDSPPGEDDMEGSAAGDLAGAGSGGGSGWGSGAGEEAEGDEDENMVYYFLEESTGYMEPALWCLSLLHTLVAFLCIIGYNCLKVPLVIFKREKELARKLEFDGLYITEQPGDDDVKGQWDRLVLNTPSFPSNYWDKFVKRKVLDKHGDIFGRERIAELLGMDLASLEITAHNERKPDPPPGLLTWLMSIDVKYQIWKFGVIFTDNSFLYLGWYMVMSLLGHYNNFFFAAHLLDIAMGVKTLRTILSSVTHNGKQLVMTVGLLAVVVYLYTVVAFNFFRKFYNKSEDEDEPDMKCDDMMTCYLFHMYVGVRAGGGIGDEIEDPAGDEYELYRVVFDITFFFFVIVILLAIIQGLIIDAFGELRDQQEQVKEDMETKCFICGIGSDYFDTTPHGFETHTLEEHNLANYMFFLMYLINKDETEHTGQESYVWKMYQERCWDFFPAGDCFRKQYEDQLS

The stoichiometry N is a count of units in the complex or per binding partner. As to “rabbit skeletal muscle type 1 ryanodine receptor (RyR1), P11716 1-5037”, the stoichiometry N was 4.
